# Marks after values point to notes of the source that are not given here.
# B1: MN20A10-Deruxtecan (conjugate)
# VH: QVQLVESGGGLVKPGGSLRLSCAASGFTFSTYAMSWIRQAPGKGLEWVASIGRAGSTYYSDSVKGRFTISRDNAKNSLYLQMNSLRAEDTAVYYCARGPIYNDYDEFAYWGQGTLVTVSS
# VL: EIVLTQSPATLSLSPGERATLSCKSSQSVLYSSNQKNYLAWYQQKPGQAPRLLIYWASTRESGIPARFSGSGSGTDFTLTISSLEPEDFAVYYCHQYLSSLTFGGGTKVEIKR
# B2: MNC2-Exatecan (conjugate)
# VH: EVQLVESGGGLVKPGGSLRLSCAASGFTFSGYAMSWVRQAPGKGLEWVSTISSGGTYIYYPDSVKGRFTISRDNAKNSLYLQMNSLRAEDTAVYYCARLGGDNYYEYFDVWGKGTTVTVSS
# VL: DIVLTQSPASLAVSPGQRATITCRASKSVSTSGYSYMHWYQQKPGQPPKLLIYLASNLESGVPARFSGSGSGTDFTLTINPVEANDTANYYCQHSRELPFTFGGGTKVEIKRT
# B3: MN20A10: anti-MUC1* antibody, IgG2b isotype, CDRs SEQ ID NO 1-3 and 13-15 (antibody, V domains shown)
# VH: EVMLVESGGGLVKPGGSLKLSCAASGFTFSTYAMSWIRQTPEKRLEWVASIGRAGSTYYSDSVKGRFTISRDNVRNILYLQMSSLRSEDTAMYYCARGPIYNDYDEFAYWGQGTLVTVSA
# VL: NIMMTQSPSSLAVSAGEKVTMSCKSSQSVLYSSNQKNYLAWYQQKPGQSPKLLIYWASTRESGVPDRFTGSGSGTDFTLTISSVQAEDLAVYYCHQYLSSLTFGAGTKLELK
# Columns and labels:
# [1] = test system: T47D wild-type breast cancer cells; test: xCELLigence real-time killing assay (impedance); format: cell-based, human
# Description: FIGS. 49A-49J show traces from the real-time killing assays performed on an xCELLigence instrument. In this assay, impedance is measured in real-time. When the adherent cancer cells are killed and come off of the electrode surface, impedance (insulation) decreases. T47D wild-type breast cancer cells were plated onto multi-electrode-well plates at 5,000 cells per well and allowed to adhere and grow for 24 hours before the addition of ADCs. Either MNC2-MMAE, DAR 4.1, MN20A10-MMAE, DAR 5.8, MNC2-MMAF, DAR 3.7, MN20A10-MMAF, DAR 3.8, MNC2-Deruxtecan, DAR 7.2, or MN20A10-Deruxtecan, DAR 4.6, was then added to the cancer cells. […] Taxol and Triton are added as the positive killing control. […] Taxol and Triton are added as the positive killing control. […]
# (§1) To assess real-time killing of target cancer cells including breast cancer cells (T47D), non-small cell lung cancer cells (NCI-H1975) and pancreatic cancer cells (HP AF II) assays were performed on an xCELLigence RTCA MP Instrument (Agilent). Target Cancer cells were seeded onto a multi-electrode well plate at a density of 5000 cells/well (100 μL of a 50,000 cells/mL stock) and incubated for 24 hr in a 37° C./5% CO2 incubator. mAb MNC2 ADCs or mAb MN20A10-ADCs were prepared as a 2× solution in corresponding growth media and 100 μL of each concentration was added to target cells. As a positive control (100% cell killing) cells were treated with either 1% triton or 1 μM Taxol instead of ADC. After 40-120 hours incubation in a 37° C./5% CO2 incubator cell killing was assessed. In this assay, impedance is measured in real-time. When the adherent cancer cells are killed and come off the electrode surface, impedance (insulation) decreases.
# (§2) MNC2-ADCs and MN20A10-ADCs were also assayed for their ability to kill both low and high MUC1* expressing cells by monitoring killing in real-time using an xCELLigence instrument. In the xCelligence system, target cancer cells, which are adherent, are plated onto electrode array 96-well plates. Adherent cells insulate the electrode and increase the impedance. The number of adherent cancer cells is directly proportional to impedance. […] Therefore, increasing impedance reflects the growth of the cancer cells and decreasing impedance reflects the killing of the cancer cells.
# Breast cancer cell line T47D-wt expresses MUC1* at low to low-medium levels. Pancreatic cancer cell line HPAF II-wt expresses even lower levels of MUC1* and lung cancer cell line NCI-H1975 express still lower levels of MUC1*.
# [2] = test system: T47D-MUC1* breast cancer cells; test: xCELLigence real-time killing assay (impedance); format: cell-based, human
# Description: In this assay, impedance is measured in real-time. When the adherent cancer cells are killed and come off of the electrode surface, impedance (insulation) decreases. […] Either MNC2-MMAE, DAR 4.1, MN20A10-MMAE, DAR 5.8, MNC2-MMAF, DAR 3.7, MN20A10-MMAF, DAR 3.8, MNC2-Deruxtecan, DAR 7.2, or MN20A10-Deruxtecan, DAR 4.6, was then added to the cancer cells. […] Taxol and Triton are added as the positive killing control. […] Taxol and Triton are added as the positive killing control.
# In this assay, impedance is measured in real-time. When the adherent cancer cells are killed and come off of the electrode surface, impedance (insulation) decreases. […] Either MNC2-Exatecan, DAR 8.2, MNC2-Deruxtecan, DAR 4.0, MNC2-MMAE, DAR 4.1, or free Exatecan at 50 μM, was then added to the cancer cells.
# as §1, §2
# [3] = test system: DU145 hormone refractory prostate cancer cells; test: PrestoBlue live/dead cell assay and brightfield photographs; format: cell-based; settings: 500 nM, 20× magnification
# [4] = test system: cancer cells that express low levels of MUC1*; test: xCELLigence real-time killing assay, summary over low expressers; format: cell-based; settings: FIG. 54 and FIG. 56, DAR 8.2
# [5] = test system: NCI-H1975 lung cancer cells; test: xCELLigence real-time killing assay (impedance); format: cell-based, human; settings: readout 0 to 120 hours, DAR 8.2 (FIG. 56)
# Description: FIG. 51A-51I show traces from the real-time killing assays performed on an xCELLigence instrument. In this assay, impedance is measured in real-time. When the adherent cancer cells are killed and come off of the electrode surface, impedance (insulation) decreases. NCI-H1975 lung cancer cells were plated onto multi-electrode-well plates at 5,000 cells per well and allowed to adhere and grow for 24 hours before the addition of ADCs. Either MNC2-MMAE, DAR 4.1, MN20A10-MMAE, DAR 5.8, MNC2-MMAF, DAR 3.7, MN20A10-MMAF, DAR 3.8, MNC2-Deruxtecan, DAR 7.2, or MN20A10-Deruxtecan, DAR 4.6, was then added to the cancer cells. […] Taxol and Triton are added as the positive killing control. […].
# FIGS. 56A-56D show traces from the real-time killing assays performed on an xCELLigence instrument. In this assay, impedance is measured in real-time. When the adherent cancer cells are killed and come off of the electrode surface, impedance (insulation) decreases. Here NCI-H1975 non-small cell lung cancer cells that express very low levels of MUC1*, were plated onto multi-electrode 96-well plates at 5,000 cells per well and allowed to adhere and grow for 24 hours before the addition of ADCs. Either MNC2-Exatecan, DAR 8.2, MNC2-Deruxtecan, DAR 4.0, MNC2-MMAE, DAR 4.1, or free Exatecan at 50 μM, was then added to the cancer cells.
# as §1, §2
# [6] = Toxicities in animal studies of the ADC formats; format: in vivo; settings: each antibody incorporated into several ADC formats
# Source text: Exatecans have a high level of bystander effect, meaning that they can kill neighboring cells. […] It is not completely clear whether these side effects are due to the payload or to the target, HER2, which is also expressed on normal lung and normal heart. Recall that the first two patients treated with a HER2 targeting CAR T cell product died shortly after the infusion. […] More recently, yet another patient died after being treated with a different HER2-targeting ADC.
molecule,measurement,setting,value
B1,concentration showing potent / effective / comparable killing,[1]; after 120 hours,167 nM
same,concentration with significant killing,"[1]; by 120 hours, DAR 4.6",167 nM
same,ADC concentration at which essentially all (near total) tumor cells were killed,[2]; readout 120 hours post ADC addition,167 nM
same,cell morphology in photographs,[3],rounding up and dead cells
B2,concentration as low as which target cancer cells are potently killed,"[1]; readout 0 to 120 hours, DAR 8.2 (FIG. 54)",56 nM
same,concentration as low as which cancer cells are potently killed,"[2]; readout 0 to 120 hours, MNC2-Exatecan DAR 8.2, MNC2-Deruxtecan DAR 4.0 (FIG. 55)",as low as 6.2 nM and even as low as 2.1 nM
same,killing potency compared with MNC2-deruxtecan (DAR 4.0) and MNC2-MMAE (DAR 4.1),[4],more potent killing of the low MUC1* expressing cancer cells
same,concentration as low as which cancer cells are potently killed,[5],167 nM
B3,toxicities,[6],elicited no toxicities in animal studies

# Reference: patent US12491259B2, “Anti-variable MUC1* antibodies and uses thereof” (Minerva Biotechnologies Corporation, priority 2022, dated 2025)
